From patent US20210347873A1 (SHANGHAI PHARMAEXPLORER, published 2021)
Positions count from the first letter of the chain named.

T1: cynomolgus BLyS (full length, arginine to histidine at position 132) on CHO-K1 cells (cynomolgus, UniProt Q9Y275 1-285 (human entry))
T1 construct: also called cyno BLyS; CHO-K1 cynoBLyS
T1 chain: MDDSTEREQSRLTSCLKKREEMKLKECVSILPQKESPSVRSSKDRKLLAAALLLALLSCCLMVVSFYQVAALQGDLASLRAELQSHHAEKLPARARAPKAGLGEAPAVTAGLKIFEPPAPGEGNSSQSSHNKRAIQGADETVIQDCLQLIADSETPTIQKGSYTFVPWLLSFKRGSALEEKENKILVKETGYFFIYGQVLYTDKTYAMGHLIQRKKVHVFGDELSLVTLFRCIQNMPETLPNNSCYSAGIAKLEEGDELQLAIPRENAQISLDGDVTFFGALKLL

B1: 2-1G11 (antibody, V domains shown)
VH: EVQLVESRGGVVQPGRSLRLSCAASGFTFSSYGMHWVRQAPGKGLEWVAVISYDGSNKYYADSVKGRFTISRDNSKNTLYLQMNSLRAEDAAVYYCARDRVDILTGYSIYGMDVWGQGTTVTVSS
VL: EIVMTQSPATLSLSPGERATLSCRASQSVSSYLAWYQQKPGQAPRLLIYDASKRATGIPARFSGSGSGTDFTLTISSLEPEDFAVYYCQQRSNWPLTFGGGTKVEIK
notes: From a human naive scFv phage library; also called human BLyS antibody 2-1G11
B2: L9G7 (antibody, V domains shown)
VH: QIQLVQSGAEVKKPGASVKVSCKASGYTFTSYGISWVRQAPGQGLEWMGWISAYNGNTNYAQKLQGRVTMTTDTSTSTAYMELRSLRSDDTAVYYCARTYYDILTGYYYYGMDVWGQGTTVTVSS
VL: B1 VL with M4L, A9G, A25T, S30D, S31T, K53N
notes: From a human naive scFv phage library; also called human BLyS antibody L9G7
B3: L1D12 (antibody, V domains shown)
VH: QVQLVQSGGGLVQPGGSLRLSCAASGFTVSSNYMSWVRQAPGKGLEWVSVIYSGGSTYYADSVKGRFTISRDNSKNTLYLQMNSLRAEDTAVYYCARGFHDILTGYGMDVWGQGTTVTVSS
VL: SSELTQDPAVSVALGQTVRITCQGDSLRNYYAGWYQQKPGQAPVLVIYGKNNRPSGIPDRFSGSSSGNTASLTITGTQAEDEADYYCSSRDNSGTHLVEFGGGTKLTVL
notes: From a human naive scFv phage library; also called human BLyS antibody L1D12; LID12
B4: 97A3C2H4 (antibody, V domains shown)
VH: EVKLVESGGGLVQPGGSLKLSCAASGFTFSTYTMSWVRQTPEKRLEWVAYISYGGGSTSYPDTVKGRFTISRDNAKNTLYLQMSSLKSEDTAIYYCTRHVTVVENSMDYWGQGTSVTVSS
VL: DILLTQSPDILSVSPGERVSFSCRASQSIGTSIHWYQQRTNGSPRLLIKYVSESFSGTPSRFSGSGSGTAFTLTINSVESEDIADYYCQQTHSWPWTFGGGTKLEIK
notes: Mouse hybridoma monoclonal antibody purified on Protein G

Target: T1, cynomolgus BLyS (full length, arginine …)
Test: flow cytometry, CHO-K1 cynoBLyS cells, antibody 2.67 nM

Row | Binder | MFI
1 | B1 | 1480 MFI
2 | B2 | 1280 MFI
3 | B3 | 1170 MFI
4 | B4 | 956 MFI

Target: T1, cynomolgus BLyS (full length, arginine …)
Test: flow cytometry, CHO-K1 cynoBLyS cells, antibody 0.107 nM

Row | Binder | MFI
5 | B1 | 816 MFI
6 | B2 | 387 MFI
7 | B3 | 364 MFI
8 | B4 | 243 MFI

Target: T1, cynomolgus BLyS (full length, arginine …)
Test: flow cytometry, CHO-K1 cynoBLyS cells, antibody 0 nM

Row | Binder | MFI
9 | B1 | 21.2 MFI
10 | B2 | 20.6 MFI
11 | B3 | 21.2 MFI
12 | B4 | 20 MFI

What follows are binders tested against T2, human BLyS (full length, arginine to histidine at position 132) on CHO-K1 cells (human, UniProt Q9Y275 1-285) (assay: flow cytometry, CHO-K1 hBLyS cells, antibody 0.00427 nM).
T2 construct: also called hBLyS; CHO-K1 hBLyS
T2 sequence (Q9Y275 whole entry R130H): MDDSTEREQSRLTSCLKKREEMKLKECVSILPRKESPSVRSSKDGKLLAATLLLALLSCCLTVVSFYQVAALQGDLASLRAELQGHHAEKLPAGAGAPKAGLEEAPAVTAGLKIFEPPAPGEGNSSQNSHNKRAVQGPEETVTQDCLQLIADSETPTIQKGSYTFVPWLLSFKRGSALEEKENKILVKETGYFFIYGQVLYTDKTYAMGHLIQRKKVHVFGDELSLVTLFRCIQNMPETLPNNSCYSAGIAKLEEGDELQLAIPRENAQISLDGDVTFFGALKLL

Row | Binder | MFI
13 | B1 | 107 MFI
14 | B2 | 51.6 MFI
15 | B3 | 54.4 MFI
16 | B4 | 44 MFI

Target: T1, cynomolgus BLyS (full length, arginine …)
Test: flow cytometry, CHO-K1 cynoBLyS cells, antibody 13.3 nM

Row | Binder | MFI
17 | B1 | 1450 MFI
18 | B2 | 1280 MFI
19 | B3 | 1130 MFI
20 | B4 | 943 MFI

What follows are binders tested against T2, human BLyS (full length, arginine to …) (assay: flow cytometry, CHO-K1 hBLyS cells, antibody 0.0213 nM).

Row | Binder | MFI
21 | B1 | 180 MFI
22 | B2 | 93 MFI
23 | B3 | 89.5 MFI
24 | B4 | 69.8 MFI

Each binder was assayed against T2, human BLyS (full length, arginine to …) (assay: flow cytometry, CHO-K1 hBLyS cells, antibody 13.3 nM).

Row | Binder | MFI
25 | B1 | 633 MFI
26 | B2 | 630 MFI
27 | B3 | 522 MFI
28 | B4 | 460 MFI

What follows are binders tested against T2, human BLyS (full length, arginine to …) (assay: flow cytometry, CHO-K1 hBLyS cells, antibody 0.107 nM).

Row | Binder | MFI
29 | B1 | 403 MFI
30 | B2 | 226 MFI
31 | B3 | 205 MFI
32 | B4 | 158 MFI

These binders were tested against mouse BLyS protein (mouse, UniProt Q9WU72 69-309) (assay: cell-based or functional assay).
Chain of mouse BLyS protein (Q9WU72 69-309): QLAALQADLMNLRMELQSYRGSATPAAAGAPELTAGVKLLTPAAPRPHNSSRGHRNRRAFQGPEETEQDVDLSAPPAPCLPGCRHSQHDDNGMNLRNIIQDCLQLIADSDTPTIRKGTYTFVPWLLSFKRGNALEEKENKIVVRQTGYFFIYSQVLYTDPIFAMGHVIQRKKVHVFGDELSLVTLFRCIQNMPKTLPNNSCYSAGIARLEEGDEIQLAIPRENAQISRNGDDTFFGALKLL

Row | Binder | mouse B lymphocyte proliferation (OD450 nm), antibody 0 nM | mouse B lymphocyte proliferation (OD450 nm), antibody 0.000256 nM | mouse B lymphocyte proliferation (OD450 nm), antibody 0.00128 nM | mouse B lymphocyte proliferation (OD450 nm), antibody 0.0064 nM | mouse B lymphocyte proliferation (OD450 nm), antibody 0.032 nM | mouse B lymphocyte proliferation (OD450 nm), antibody 0.16 nM | mouse B lymphocyte proliferation (OD450 nm), antibody 0.8 nM | mouse B lymphocyte proliferation (OD450 nm), antibody 4 nM | mouse B lymphocyte proliferation (OD450 nm), antibody 20 nM | mouse B lymphocyte proliferation (OD450 nm), antibody 100 nM
33 | B1 | 2320 OD450 nm | 2450 OD450 nm | 2560 OD450 nm | 2610 OD450 nm | 2470 OD450 nm | 2750 OD450 nm | 2820 OD450 nm | 2460 OD450 nm | 2680 OD450 nm | 2490 OD450 nm
34 | B2 | 2100 OD450 nm | 2430 OD450 nm | 2480 OD450 nm | 2460 OD450 nm | 2340 OD450 nm | 2260 OD450 nm | 640 OD450 nm | 308 OD450 nm | 243 OD450 nm | 221 OD450 nm
35 | B3 | 2340 OD450 nm | 2450 OD450 nm | 2610 OD450 nm | 2500 OD450 nm | 2460 OD450 nm | 2520 OD450 nm | 2410 OD450 nm | 2560 OD450 nm | 2460 OD450 nm | 2450 OD450 nm
36 | B4 | 2160 OD450 nm | 2210 OD450 nm | 2200 OD450 nm | 2250 OD450 nm | 2370 OD450 nm | 2300 OD450 nm | 2410 OD450 nm | 2430 OD450 nm | 2400 OD450 nm | 2320 OD450 nm

These binders were tested against T2, human BLyS (full length, arginine to …) (assay: flow cytometry, CHO-K1 hBLyS cells, antibody 0 nM).

Row | Binder | MFI
37 | B1 | 186 MFI
38 | B2 | 101 MFI
39 | B3 | 101 MFI
40 | B4 | 31.2 MFI
